According to paper PMC10027685, “Frozen fresh blood plasma preserves the functionality of native human α2-macroglobulin” (Scientific Reports, 2023):

Target: the molecule itself
Test: SEC-MALS; Superose 6 10/300 Increase column, buffer C (20 mM Tris–HCl, 150 mM sodium chloride, pH 7.4), 25 °C; native and MA-treated hα2M from FR and NF plasma

B1: native human α2-macroglobulin (natural protein, UniProt P01023 24-1474, looked up)
chain: SVSGKPQYMVLVPSLLHTETTEKGCVLLSYLNETVTVSASLESVRGNRSLFTDLEAENDVLHCVAFAVPKSSSNEEVMFLTVQVKGPTQEFKKRTTVMVKNEDSLVFVQTDKSIYKPGQTVKFRVVSMDENFHPLNELIPLVYIQDPKGNRIAQWQSFQLEGGLKQFSFPLSSEPFQGSYKVVVQKKSGGRTEHPFTVEEFVLPKFEVQVTVPKIITILEEEMNVSVCGLYTYGKPVPGHVTVSICRKYSDASDCHGEDSQAFCEKFSGQLNSHGCFYQQVKTKVFQLKRKEYEMKLHTEAQIQEEGTVVELTGRQSSEITRTITKLSFVKVDSHFRQGIPFFGQVRLVDGKGVPIPNKVIFIRGNEANYYSNATTDEHGLVQFSINTTNVMGTSLTVRVNYKDRSPCYGYQWVSEEHEEAHHTAYLVFSPSKSFVHLEPMSHELPCGHTQTVQAHYILNGGTLLGLKKLSFYYLIMAKGGIVRTGTHGLLVKQEDMKGHFSISIPVKSDIAPVARLLIYAVLPTGDVIGDSAKYDVENCLANKVDLSFSPSQSLPASHAHLRVTAAPQSVCALRAVDQSVLLMKPDAELSASSVYNLLPEKDLTGFPGPLNDQDNEDCINRHNVYINGITYTPVSSTNEKDMYSFLEDMGLKAFTNSKIRKPKMCPQLQQYEMHGPEGLRVGFYESDVMGRGHARLVHVEEPHTETVRKYFPETWIWDLVVVNSAGVAEVGVTVPDTITEWKAGAFCLSEDAGLGISSTASLRAFQPFFVELTMPYSVIRGEAFTLKATVLNYLPKCIRVSVQLEASPAFLAVPVEKEQAPHCICANGRQTVSWAVTPKSLGNVNFTVSAEALESQELCGTEVPSVPEHGRKDTVIKPLLVEPEGLEKETTFNSLLCPSGGEVSEELSLKLPPNVVEESARASVSVLGDILGSAMQNTQNLLQMPYGCGEQNMVLFAPNIYVLDYLNETQQLTPEIKSKAIGYLNTGYQRQLNYKHYDGSYSTFGERYGRNQGNTWLTAFVLKTFAQARAYIFIDEAHITQALIWLSQRQKDNGCFRSSGSLLNNAIKGGVEDEVTLSAYITIALLEIPLTVTHPVVRNALFCLESAWKTAQEGDHGSHVYTKALLAYAFALAGNQDKRKEVLKSLNEEAVKKDNSVHWERPQKPKAPVGHFYEPQAPSAEVEMTSYVLLAYLTAQPAPTSEDLTSATNIVKWITKQQNAQGGFSSTQDTVVALHALSKYGAATFTRTGKAAQVTIQSSGTFSSKFQVDNNNRLLLQQVSLPELPGEYSMKVTGEGCVYLQTSLKYNILPEKEEFPFALGVQTLPQTCDEPKAHTSFQISLSVSYTGSRSASNMAIVDVKMVSGFIPLKPTVKMLERSNHVSRTEVSSNHVLIYLDKVSNQTLSLFFTVLQDVPVRDLKPAIVKVYDYYETDEFAIAEYNAPCSKDLGNA
modifications: β-cysteinyl-γ-glutamyl thioester bond C972–Q975; glycosylated
notes: human α2-macroglobulin, secreted glycosylated 1451-residue protein; homotetramer, a dimer of disulfide-linked dimers; Authentic protein from the plasma of anonymous healthy donors; also called hα2M; native hα2M
- stoichiometry N: 4
